The record followed here is PMC7884711, “Identification of efficient prokaryotic cell-penetrating peptides with applications in bacterial biotechnology” (Communications Biology, 2021).

Where no end group is shown, it is not given here.

Data set [1] deals with E. coli DH5α cells. Description: Penetration efficiency of TAMRA-labeled CPPs, electroporation-based method, flow cytometry. Format: cell-based, Escherichia coli. To be noted: electrocompetent E. coli DH5α, 5 μg TAMRA-CPP, electroporation 1.8 kV; for Cell penetration efficiency (TAMRA fluorescence), Electrooration - Tris buffer: 20 mM Tris-HCl pH 7.5, 1 h; for Cell penetration efficiency (TAMRA fluorescence), Electrooration - DW: distilled water, 1 h. From the text: (§1) (Fig. 2a). […] First, we prepared electrocompetent and chemically competent cells.
Background: Flow cytometry measures light scatter and fluorescence of single cells or particles in a stream.

In data set [2] the test system is E. coli DH5α cells. Description: Penetration efficiency of TAMRA-labeled CPPs, chemical (CaCl2) treatment method, flow cytometry. Format: cell-based, Escherichia coli. The following applies: for Cell penetration efficiency (TAMRA fluorescence), Chemical (CaCl2) method - Tris buffer / Cell penetration efficiency (TAMRA fluorescence), Chemical (CaCl2) method - DW: 50 mM CaCl2-treated E. coli DH5α, 5 μg TAMRA-CPP; for Cell penetration efficiency (TAMRA fluorescence), Chemical (CaCl2) method - Tris buffer: 20 mM Tris-Cl pH 7.5, 1 h; for Cell penetration efficiency (TAMRA fluorescence), Chemical (CaCl2) method - DW: 5 × 10^7 cells/50 μL, distilled water, 1 h; for Penetration efficiency (TAMRA FI): TAMRA fluorescence intensity in E. coli, library screen of 98 CPPs.
From the text: as §1

For data set [3], the system named is E. coli DH5α cells. The data set is described as follows: Penetration efficiency of TAMRA-labeled CPPs, non-treated cells (control method), flow cytometry. To be noted: 5 μg TAMRA-labeled CPP (0.1 μg/μL), 1 h, PBS washes.
Procedure: For the evaluation and optimization of the electroporation-based method, five efficient CPPs were selected from the previous reports[45],[46] […] The CPP were labeled with TAMRA to trace their penetration into the cytoplasm. First, we prepared electrocompetent and chemically competent cells[46]. As a negative control, we also prepared non-treated cells. After treating the five TAMRA-labeled CPP peptides, either distilled water or 20 mM Tris-Cl (pH = 7.5) was added as a buffer to the E. coli–CPP mixture and incubated at 37 °C for 1 h. After washing the cells, their fluorescence intensities were measured by flow cytometry to quantify CPP delivery efficiency.
Prepared cells at a density of 5 × 10^7 cells/50 μL were treated with 5 μg of TAMRA-labeled CPPs (0.1 μg/μL) and incubated for 1 h at room temperature. After incubation, the cells were washed with 1 × PBS and centrifuged at 7000 rpm for 10 min three times to remove extracellular CPPs.
Then, the cells were washed with 1 × PBS and centrifuged at 7000 rpm for 10 min three times. The fluorescence intensity of the CPPs in E. coli cells was quantitatively measured using a Guava EasyCyte flow cytometer (Millipore, Darmstadt, Germany) with an excitation wavelength of 547 nm and an emission wavelength of 580 nm.
In data set [4] the test system is E. coli DH5α cells. The data set is described as follows: Inhibition of bacterial cell growth by CPPs (Max OD600 relative to control). Format: cell-based, Escherichia coli. To be noted: for Max OD (%) (Figure 3f): E. coli DH5α diluted 1/1000 in LB, 5 μg TAMRA-CPP (0.1 μg/μL), OD600 monitored 18 h, max OD of treated cells / max OD of control cells; for Growth rate (%): E. coli growth with CPP, relative to control; for Anti-bacterial activity: class (Cytotoxic / Safe), cutoff of 50%. As for the experimental part: E. coli DH5α cells were grown until OD600 = 1 at 37 °C with shaking at 200 rpm. […] Then, cell growth (OD600) was monitored for 18 h by using the Synergy^TM H1 hybrid multi-mode microplate reader (BioTek, Vermont, USA). As a control, we used E. coli cells that were not treated with CPPs.

Consider “Rev(34-50) (TRQARRNRRRRWRERQR; also: TAMRA label, site not given here) [CPP 15, TAMRA-labeled CPP of the 98-CPP library, one of five used to evaluate delivery methods]”, for which the “Cell penetration efficiency (TAMRA fluorescence), Electrooration - Tris buffer” value with E. coli DH5α cells [1] (replicate 1) amounted to 1419.77 A.U; in the data set on E. coli DH5α cells [1] (replicate 2), 1626.5 A.U; with E. coli DH5α cells [1] (replicate 3), 1629.96 A.U; in the data set on E. coli DH5α cells [1] (replicate 4), 1157.23 A.U. The “Cell penetration efficiency (TAMRA fluorescence), Electrooration - DW” value was 772.285 A.U in the data set on E. coli DH5α cells [1] (replicate 1), 531.205 A.U in the data set on E. coli DH5α cells [1] (replicate 2) and 564.956 A.U in the data set on E. coli DH5α cells [1] (replicate 3). For the same substance, the “Cell penetration efficiency (TAMRA fluorescence), Chemical (CaCl2) method - Tris buffer” value amounted to 103.028 A.U in the data set on E. coli DH5α cells [2] (replicate 1), 97.4338 A.U in the data set on E. coli DH5α cells [2] (replicate 2) and 68.163 A.U in the data set on E. coli DH5α cells [2] (replicate 3). For the same substance, the “Cell penetration efficiency (TAMRA fluorescence), Chemical (CaCl2) method - DW” value in the data set with E. coli DH5α cells [2] (replicate 1) is recorded as 228.73 A.U; in the data set on E. coli DH5α cells [2] (replicate 2) it was 679.736 A.U; in the data set with E. coli DH5α cells [2] (replicate 3) it was 805.596 A.U. In the data set with E. coli DH5α cells [2], the “Penetration efficiency (TAMRA FI)” value worked out at 1458.36. Moreover, the results for the “Cell penetration efficiency (TAMRA fluorescence), Control” value in the data set on E. coli DH5α cells [3] (replicate 1), with E. coli DH5α cells [3] (replicate 2) and in the data set with E. coli DH5α cells [3] (replicate 3) were 29.8568 A.U, 31.0533 A.U and 36.163 A.U, respectively. For the same substance, the “Max OD (%) (Figure 3f)” value with E. coli DH5α cells [4] (replicate 1) is 73.0516%; with E. coli DH5α cells [4] (replicate 2) it was 73.4005%; with E. coli DH5α cells [4] (replicate 3) it was 79.5657%. Also, in the data set on E. coli DH5α cells [4], the “Growth rate (%)” value is listed as 75.3393%. The Anti-bacterial activity result with E. coli DH5α cells [4] is “Safe”.

Consider “R9-TAT (GRRRRRRRRRPPQ; also: TAMRA label, site not given here) [CPP 14, TAMRA-labeled CPP of the 98-CPP library, one of five used to evaluate delivery methods]”, for which the “Cell penetration efficiency (TAMRA fluorescence), Electrooration - Tris buffer” value with E. coli DH5α cells [1] (replicate 1) is recorded as 1652.65 A.U; in the data set with E. coli DH5α cells [1] (replicate 2), 2400.94 A.U; in the data set on E. coli DH5α cells [1] (replicate 3) it was 906.944 A.U; with E. coli DH5α cells [1] (replicate 4), 1858.43 A.U. The figures for the “Cell penetration efficiency (TAMRA fluorescence), Electrooration - DW” value in the data set on E. coli DH5α cells [1] (replicate 1), in the data set on E. coli DH5α cells [1] (replicate 2) and in the data set with E. coli DH5α cells [1] (replicate 3) were 871.282 A.U, 655.834 A.U and 728.231 A.U, respectively. In addition, the figures for the “Cell penetration efficiency (TAMRA fluorescence), Chemical (CaCl2) method - Tris buffer” value in the data set on E. coli DH5α cells [2] (replicate 1), with E. coli DH5α cells [2] (replicate 2) and in the data set with E. coli DH5α cells [2] (replicate 3) were 247.778 A.U, 278.483 A.U and 297.356 A.U, respectively. In addition, the “Cell penetration efficiency (TAMRA fluorescence), Chemical (CaCl2) method - DW” value in the data set on E. coli DH5α cells [2] (replicate 1) worked out at 1405.86 A.U; in the data set on E. coli DH5α cells [2] (replicate 2), 216.364 A.U; with E. coli DH5α cells [2] (replicate 3), 286.408 A.U. Moreover, the “Penetration efficiency (TAMRA FI)” value in the data set with E. coli DH5α cells [2] is on record as 1704.74. Moreover, the results for the “Cell penetration efficiency (TAMRA fluorescence), Control” value in the data set on E. coli DH5α cells [3] (replicate 1), with E. coli DH5α cells [3] (replicate 2) and in the data set with E. coli DH5α cells [3] (replicate 3) were 29.4004 A.U, 32.4749 A.U and 29.0426 A.U, respectively. The “Max OD (%) (Figure 3f)” value in the data set on E. coli DH5α cells [4] (replicate 1) stood at 76.3087%; with E. coli DH5α cells [4] (replicate 2), 63.2803%; in the data set on E. coli DH5α cells [4] (replicate 3), 64.6762%. For the same substance, the “Growth rate (%)” value with E. coli DH5α cells [4] amounted to 68.0884%. In the data set on E. coli DH5α cells [4], the Anti-bacterial activity entry is “Safe”.
